From patent US20250076311A1 (Chugai, published 2025)
Substitutions are numbered along the chain they refer to. Numbers in names are those of the source.

T1: human FcγRIIaH extracellular domain with C-terminal His-tag (human, UniProt P12318 34-217)
T1 construct: also called human FcgRIIaH; FcγRIIa type H; not shown: His-tag added to the C-terminus
T1 sequence: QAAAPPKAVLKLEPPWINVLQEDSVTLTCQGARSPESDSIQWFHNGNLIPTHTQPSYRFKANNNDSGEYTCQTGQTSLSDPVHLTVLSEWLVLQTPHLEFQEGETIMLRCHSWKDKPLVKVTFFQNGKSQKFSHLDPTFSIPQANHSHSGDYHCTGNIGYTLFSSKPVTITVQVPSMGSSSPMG

T2: human FcγRIIaR extracellular domain with C-terminal His-tag (human, UniProt P12318 34-217)
T2 construct: also called human FcgRIIaR; FcγRIIa type R; not shown: His-tag added to the C-terminus
T2 chain: T1 sequence with H134R

T3: human FcγRIIb extracellular domain, His-tagged (human, UniProt P31994 43-217)
T3 construct: also called FcgRIIb (human)
T3 sequence: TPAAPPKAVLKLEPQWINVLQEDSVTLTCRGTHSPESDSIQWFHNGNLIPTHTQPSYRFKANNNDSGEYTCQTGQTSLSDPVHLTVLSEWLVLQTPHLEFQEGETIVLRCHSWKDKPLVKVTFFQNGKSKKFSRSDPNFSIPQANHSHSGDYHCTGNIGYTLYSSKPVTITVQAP

T4: cynomolgus monkey FcγRIIa1 extracellular domain with C-terminal His-tag (cynomolgus monkey)
T4 construct: also called cyno FcgRIIa1; cynoFcγRIIa1; not shown: His-tag added to the C-terminus
T4 chain: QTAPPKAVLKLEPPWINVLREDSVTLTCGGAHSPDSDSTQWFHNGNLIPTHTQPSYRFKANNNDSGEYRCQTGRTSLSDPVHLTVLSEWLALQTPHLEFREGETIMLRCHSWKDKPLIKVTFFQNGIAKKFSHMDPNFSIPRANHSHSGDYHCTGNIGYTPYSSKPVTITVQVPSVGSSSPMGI

T5: cynomolgus monkey FcγRIIb extracellular domain with C-terminal His-tag (cynomolgus monkey)
T5 construct: also called cyno FcgRIIb; cynoFcγRIIb; not shown: His-tag added to the C-terminus
T5 chain: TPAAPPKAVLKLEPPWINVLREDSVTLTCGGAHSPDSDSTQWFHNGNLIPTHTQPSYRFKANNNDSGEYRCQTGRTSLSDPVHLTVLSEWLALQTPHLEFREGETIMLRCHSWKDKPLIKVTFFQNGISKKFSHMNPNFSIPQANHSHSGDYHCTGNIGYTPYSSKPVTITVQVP

T6: cynomolgus monkey FcγRIIa2 extracellular domain with C-terminal His-tag (cynomolgus monkey)
T6 construct: also called cyno FcgRIIa2; cynoFcγRIIa2; not shown: His-tag added to the C-terminus
T6 chain: T4 chain with P95T, T121A, I127K, A128S, K130N, D135N, R142Q

T7: human FcγRIIb extracellular domain with C-terminal His-tag (human, UniProt P31994 43-217)
T7 construct: also called human FcgRIIb; not shown: His-tag added to the C-terminus
T7 sequence: T3 sequence

T8: cynomolgus monkey FcγRIIa3 extracellular domain with C-terminal His-tag (cynomolgus monkey)
T8 construct: also called cyno FcgRIIa3; cynoFcγRIIa3; not shown: His-tag added to the C-terminus
T8 chain: T4 chain with P95T, T121A, A128S, H133P, D135N

T9: cynomolgus monkey FcγRIIIaS extracellular domain with C-terminal His-tag (cynomolgus monkey, UniProt Q8SPW2 21-206 at identity 1.00))
T9 construct: also called cyno FcgRIIIaS; cynoFcγRIIIaS
T9 chain: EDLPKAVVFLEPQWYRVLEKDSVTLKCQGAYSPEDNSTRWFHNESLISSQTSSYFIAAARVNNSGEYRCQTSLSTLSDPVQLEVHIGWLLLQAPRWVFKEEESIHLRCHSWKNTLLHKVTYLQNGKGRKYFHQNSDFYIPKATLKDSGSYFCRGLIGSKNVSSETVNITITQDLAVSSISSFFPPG

T10: cynomolgus monkey FcγRIIa3 extracellular domain with C-terminal His-tag (cynomolgus monkey)
T10 construct: also called cyno FcgRIIa3; cynoFcγRIIa3
T10 chain: T4 chain with P95T, T121A, A128S, H133P, D135N

T11: cynomolgus monkey FcγRIIa2 extracellular domain with C-terminal His-tag (cynomolgus monkey)
T11 construct: also called cyno FcgRIIa2; cynoFcγRIIa2
T11 chain: T4 chain with P95T, T121A, I127K, A128S, K130N, D135N, R142Q

B1: M103205H795-MY117/M103202L889-SK1 (antibody)
heavy: QVTLKESGPVLVKPTETLTLTCTVSGIDLSHDDISWVRQAPGKGLEWVGIISYAGSTYYASWAKGRLTISKDTSKNQVVLTMTNMDPVDTATYYCARGVPAYSHGGDLWGQGTLVTVSSASTKGPSVFPLAPSSKSTSGGTAALGCLVKDYFPEPVTVSWNSGALTSGVHTFPAVLQSSGLYSLSSVVTVPSSSLGTQTYICNVNHKPSNTKVDKKVEPKSCDKTHTCPPCPAPEWLNGPSVFLFPPKPKDTLMISRTPEVTCVVVDVAEEDPEVKFNWYVDGVEVHNAKTKPREEQYNSTYRVVSVLTVLHQDWLNGKEYKCKVSNKALPAPIEKTISKAKGQPREPQVYTLPPSREEMTKNQVSLTCLVKGFYPSDIAVEWESNGQPENNYKTTPMVLDSDGSFFLYSKLTVDKSRWQQGNVFSCSVMHEALHNHYTQKSLSLSP
light: DIVMTQSPATLSLSPGERATLSCTSSQSVYHANWLSWFQQKPGQPPKLLIYWASTLAYGVPSRFSGSGSGTDFTLTISSLQPEDAATYYCAGGYGGGRYAFGQGTKVEIKRTVAAPSVFIFPPSDEQLKSGTASVVCLLNNFYPREAKVQWKVDNALQSGNSQESVTEQDSKDSTYSLSSTLTLSKADYEKHKVYACEVTHQGLSSPVTKSFNRGEC
notes: Fc variant of MS1032LO06-SG1; EU numbering
B2: MS103240H795-SG1074/M103202L1045-SK1 (antibody, name in EU numbering)
heavy: QVQLVESGGGLVQPGGSLRLSCAVSGIDLSHDDISWVRQAPGKGLEWVSIISYAGSTYYASWAKGRLTISKDTSKNQVVLTMTNMDPVDTATYYCARGVPAYSHGGDLWGQGTLVTVSSASTKGPSVFPLAPSSKSTSGGTAALGCLVKDYFPEPVTVSWNSGALTSGVHTFPAVLQSSGLYSLSSVVTVPSSSLGTQTYICNVNHKPSNTKVDKKVEPKSCDKTHTCPPCPAPELLNGPSVFLFPPKPKDTLMISRTPEVTCVVVDVSDEDPEVKFNWYVDGVEVHNAKTKPREELYNSTYRVVSVLTVLHRDWLNGKEYKCKVSNTALPKPIEKTISKAKGQRREPQVYTLPPSREEMTKNQVSLTCLVKGFYPSDIAVEWESNGQPENNYKTTPPVLDSDGSFFLYSKLTVDKSRWQQGNVFSCSVLHEALHAHTTRKELSLSP
light: B1 light with S25T, A32E
notes: also called MS1032LO19-SG1074
B3: MS103205H795-SG1016/M103202L889-SK1 (antibody, human IgG1, kappa)
heavy: B1 heavy with W236L, A269S, Q313R, A332K, D401K, N436A
light: B1 light
notes: Built from the text: Q311R/D399K introduced into SG1012; also called MS1032LO06-SG1016
B4: M103205H795-MY145/M103202L889-SK1 (antibody, human IgG1, kappa, name in EU numbering)
heavy: B1 heavy with W236L, A269S, P333E
light: B1 light
notes: Fc variant of MS1032LO06-SG1; positions in EU numbering
B5: M103205H795-MY458/M103202L889-SK1 (antibody, human IgG1, kappa)
heavy: B1 heavy with P234Y, W236L, N238T, A269S, E270D, A332K, M398P
light: B1 light
notes: Substitutions in EU numbering on SG1
B6: MS103240H795-SG1080/M103202L1045-SK1 (antibody, name in EU numbering)
heavy: B2 heavy with L430M, T438Y
light: B1 light with S25T, A32E
notes: Built from the text: MY209 plus Q311R/P343R and N434A/Q438R/S440E; also called MS1032LO19-SG1080
B7: M103205H795-MY211/M103202L889-SK1 (antibody, human IgG1, kappa, name in EU numbering)
heavy: B1 heavy with W236L, S241V, A269S, E270D, K328T, A332K, M398P
light: B1 light
notes: as for B4
B8: M103205H795-MY198/M103202L889-SK1 (antibody, human IgG1, kappa, name in EU numbering)
heavy: B1 heavy with W236L, S241V, A269S, E270D, A332K
light: B1 light
notes: as for B4
B9: M103205H795-MY454/M103202L889-SK1 (antibody, human IgG1, kappa)
heavy: B1 heavy with P234S, W236L, N238T, A269S, E270D, A332K, M398P
light: B1 light
notes: as for B5
B10: MS103205H795-SG1012/M103202L889-SK1 (antibody, human IgG1, kappa)
heavy: B1 heavy with W236L, A269S, A332K, N436A
light: B1 light
notes: also called MS1032LO06-SG1012

Key:
[1] = molecular target: T1, human FcγRIIaH extracellular domain …; test: SPR (BIACORE); KD of SG1 / KD of variant
[2] = molecular target: T12, cynomolgus monkey FcγRIIIaS extracellular domain with C-terminal His-tag (cynomolgus monkey, UniProt A3RFZ7 21-206 (rhesus entry)); test: SPR (BIACORE); KD of SG1 / KD of variant
T12 construct: also called cyno FcgRIIIaS; cynoFcγRIIIaS; not shown: His-tag added to the C-terminus

[3] = molecular target: T13, human FcγRIIIaV extracellular domain with C-terminal His-tag (human, UniProt P08637 17-208); test: SPR (BIACORE), antibody captured, FcgR analyte
T13 construct: also called human FcgRIIIaV; not shown: His-tag added to the C-terminus

[4] = molecular target: T2, human FcγRIIaR extracellular domain …; test: SPR (BIACORE), antibody captured, FcgR analyte
[5] = molecular target: T12, cynomolgus monkey FcγRIIIaS …; test: SPR (BIACORE), antibody captured, FcgR analyte
[6] = molecular target: T3, human FcγRIIb extracellular domain, …; test: SPR, 25C, antibody captured, FcγR as analyte
Method: The kinetic analysis of interactions between these antibodies and FcγR was carried out using BIACORE® T200 or BIACORE® 4000 (GE Healthcare). HBS-EP+ (GE Healthcare) was used as the running buffer, and the measurement temperature was set to 25° C. […] After the measurement, the antibody captured on the chip was washed off by allowing reaction with 10 mM glycine-HCl, pH1.5 and 25 mM NaOH so that the chip was regenerated and used repeatedly. The sensorgrams obtained as measurement results were analyzed by the 1:1 Langmuir binding model using the BIACORE® Evaluation Software to calculate the binding rate constant ka (L/mol/s) and dissociation rate constant kd (1/s), and the dissociation constant KD (mol/L) was calculated from these values. […] Regarding such interactions, KD values were calculated using the following 1:1 binding model described in BIACORE® T100 Software Handbook BR1006-48 Edition AE.

[7] = molecular target: T4, cynomolgus monkey FcγRIIa1 …; test: SPR (BIACORE), antibody captured, FcgR analyte
[8] = molecular target: T5, cynomolgus monkey FcγRIIb extracellular …; test: SPR (BIACORE), antibody captured, FcgR analyte
[9] = molecular target: T6, cynomolgus monkey FcγRIIa2 …; test: SPR (BIACORE), antibody captured, FcgR analyte
[10] = molecular target: T7, human FcγRIIb extracellular domain with …; test: SPR (BIACORE), antibody captured, FcgR analyte
[11] = molecular target: T8, cynomolgus monkey FcγRIIa3 …; test: SPR (BIACORE), antibody captured, FcgR analyte
[12] = molecular target: T9, cynomolgus monkey FcγRIIIaS …; test: SPR (Biacore), antibody captured, FcgR analyte
[13] = molecular target: T10, cynomolgus monkey FcγRIIa3 …; test: SPR (Biacore), KD of SG1 / KD of variant
[14] = molecular target: T11, cynomolgus monkey FcγRIIa2 …; test: SPR (Biacore), KD of SG1 / KD of variant

T13 sequence (P08637 17-208 F176V): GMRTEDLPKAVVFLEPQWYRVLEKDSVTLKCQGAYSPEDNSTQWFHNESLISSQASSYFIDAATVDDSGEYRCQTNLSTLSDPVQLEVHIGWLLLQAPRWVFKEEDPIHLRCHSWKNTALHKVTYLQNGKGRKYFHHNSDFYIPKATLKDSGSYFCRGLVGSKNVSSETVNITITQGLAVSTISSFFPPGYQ

Row | Binder | Kd [3] [µM] | Kd [4] [µM] | Kd [5] [µM] | fold enhanced affinity compared to SG1 [6] [fold] | Kd [9] [µM] | also measured
1 | B1 | 7.9 | 1 | 1 | – | – | KD fold (SG1 = 1) [1]: 0.5 fold; KD fold (SG1 = 1) [2]: 0.36 fold
2 | B2 | – | – | – | 10 | – | –
3 | B3 | – | – | – | 10 | – | –
4 | B4 | 9.1 | 2.5 | 3.6 | – | 2.4 | Kd [7]: 1.9 µM; Kd [8]: 0.98 µM; Kd [10]: 1.2 µM; Kd [11]: 10 µM
5 | B5 | – | – | – | – | – | Kd [12]: 1.9 µM
6 | B6 | – | – | – | 10 | – | –
7 | B7 | 48 | 1.3 | 3 | – | 0.58 | Kd [10]: 0.82 µM
8 | B8 | 6.9 | – | 2.7 | – | 0.33 | –
9 | B9 | – | – | – | – | – | Kd [12]: 2.8 µM; KD fold (SG1 = 1) [13]: 2.2 fold; KD fold (SG1 = 1) [14]: 1.8 fold
10 | B10 | – | – | – | 10 | – | –
